Our source for the Kd values is article PMC7712654.

In this experiment the target is α-CT coiled-coil domain fused with HIS tag (α-CT-His), fluorescently labeled (Arabidopsis thaliana). The experiment can be described thus: MST. The settings on record: domain or fragment.
Chain of α-CT coiled-coil domain fused with HIS tag (α-CT-His), fluorescently labeled (Arabidopsis thaliana) (Q9LD43 420-769): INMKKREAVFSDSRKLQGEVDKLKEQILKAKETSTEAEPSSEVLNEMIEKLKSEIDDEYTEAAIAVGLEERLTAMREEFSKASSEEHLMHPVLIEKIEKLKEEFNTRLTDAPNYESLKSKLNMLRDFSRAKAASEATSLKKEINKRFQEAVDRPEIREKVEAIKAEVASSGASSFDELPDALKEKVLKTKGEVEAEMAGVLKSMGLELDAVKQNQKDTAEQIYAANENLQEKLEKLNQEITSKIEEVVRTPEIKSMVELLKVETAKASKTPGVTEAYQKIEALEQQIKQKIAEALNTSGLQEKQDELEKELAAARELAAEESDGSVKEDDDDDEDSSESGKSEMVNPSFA

For orientation: Kd means the equilibrium constant for the complex coming apart. Low values mean a tighter complex, high ones a looser complex. Consider “coiled-coil domain of CTI2, GST tag removed by thrombin”, for which the equilibrium dissociation constant (Kd) was 1400 nM.
